Assay results published in the supplement of paper PMC10567573.
± gives the standard deviation.

Assay: protein stability index of a GFP-peptide fusion (GPS, HEK-293T) (PSI 1-6); higher = more stable
[1] = treatment: DMSO, c terminus: a fixed tail appended
[2] = treatment: MLN4924 1 uM, 8 h, c terminus: a fixed tail appended
[3] = treatment: DMSO, c terminus: native
[4] = treatment: MLN4924 1 uM, 8 h, c terminus: native
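Further: 24-mer peptide tiles fused after GFP, lentivirally expressed, FACS-sorted into six equal bins by GFP/DsRed ratio, decoded by Illumina sequencing, PSI is the read-weighted mean bin number.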

| Sequence | protein stability index [1] | protein stability index [2] | protein stability index [3] | protein stability index [4] |
| --- | --- | --- | --- | --- |
| STRPEEGCSLHEEDTQRHETYHQQ [TCAP] | 5.47 ± 0.21 | 5.47 ± 0.2 |  |  |
| SVAVAARHAQTISGHALRILIVDW [HDAC6] | 2.82 ± 0.73 | 2.62 ± 0.63 |  |  |
| SVILSVKFSPFGQWWASVGMDDFL [TLE6] | 3.22 ± 0.46 | 3.02 ± 0.49 |  |  |
| SVWGYDLGLRSLIPAVLTVSMLGY [MYORG] | 3.05 ± 0.29 | 3.06 ± 0.4 |  |  |
| SWVLSMLYGFLLTFGFITMTPQLF [CLPTM1] | 3.21 ± 0.47 | 3.03 ± 0.16 |  |  |
| SYMLQDSLEHVQLFDLMRRMLEFD [CLK3] | 2.35 ± 0.027 | 2.47 ± 0.21 |  |  |
| TANTFRVMFKEPIEILPNVCYTAC [BTBD1] | 2.46 ± 0.44 | 2.18 ± 0.3 |  |  |
| TAQSTFNDLQDLREQILRVKDTDD [RAP1B] | 5.01 ± 0.31 | 4.97 ± 0.27 |  |  |
| TDFKDKIVLDVGCGSGILSFFAAQ [CARM1] | 2.3 ± 0.43 | 2.27 ± 0.27 |  |  |
| TDSPWIKPARKRRRRSRKKPSGAL [EHMT1] | 5.2 ± 0.39 | 5.22 ± 0.47 |  |  |
| TEALGCDPPLSQDERTHRSDRPFK [ZNF8] | 5.39 ± 0.28 | 5.26 ± 0.16 |  |  |
| TEPETAPTTEPETEPEDDRGPVVP [GNAS] | 5.61 ± 0.14 | 5.63 ± 0.27 |  |  |
| TFHDSKHNIVHVHFDATRGWLLTS [WDFY2] | 2.44 ± 0.31 | 2.17 ± 0.13 |  |  |
| TFKSFEDRVGTIKSKVVGDRENGS [TPD52L2] | 4.65 ± 0.062 | 4.7 ± 0.29 |  |  |
| TFRVSSDLIKHQRIHTEEKPYKCQ [ZNF75A] | 3.67 ± 0.15 | 3.8 ± 0.23 |  |  |
| TFVNVYIASFIRGPNPSKLIQQFL [CDS2] | 2.4 ± 0.65 | 2.73 ± 0.6 |  |  |
| TGFLIIILAIIAKEGDCAPEEKIW [MAGEA6] | 2.93 ± 0.65 | 2.71 ± 0.61 |  |  |
| TGPAWNVLMWTMLFLGQGIQVSLY [SOAT2] | 3.38 ± 0.42 | 3.26 ± 0.34 |  |  |
| TGVVEFVRKEDMTYAVRKLDNTKF [SRSF1] | 3.02 ± 0.3 | 3.26 ± 0.29 |  |  |
| THADMDGKRTPRGRRGWKKFYAVL [PSD2] | 2.65 ± 0.15 | 2.9 ± 0.11 |  |  |
| THLEGDTVQIICNTGYRLQNNENN [CFHR2] | 3.79 ± 0.22 | 3.87 ± 0.14 |  |  |
| THMYLQSDDEMELEETEPPLEPED [P3H4] | 5.4 ± 0.2 | 5.38 ± 0.29 |  |  |
| TIIEPAGESDNPLRFTSGLVVALD [INTS4] | 3.07 ± 0.37 | 3.24 ± 0.54 |  |  |

| Sequence | protein stability index [1] | protein stability index [2] | protein stability index [3] | protein stability index [4] |
| --- | --- | --- | --- | --- |
| TKHKCRQLTKASLKPRGCSKPPWR [SPACA9] | 2.85 ± 0.4 | 3.42 ± 0.47 |  |  |
| TKITSAFKYINTVISCTIFIVGMV [EDNRA] | 2.91 ± 1.1 | 2.48 ± 1 |  |  |
| TKPQNLNDAYGPPSNFLEIDVSNP [SNX3] | 4.46 ± 0.42 | 4.29 ± 0.47 |  |  |
| TKTEDRELVLRKDCPKIVEPHGKM [ZSCAN9] | 4.79 ± 0.083 | 4.72 ± 0.28 |  |  |
| TLAGLRSRRLKQPKAFCLRDVAP [MIR22HG] |  |  | 3.11 ± 0.44 | 2.99 ± 0.21 |
| TLAQAHFNNGEYAEAEALYSAYIR [TTC32] | 2.98 ± 0.27 | 3.39 ± 0.21 |  |  |
| TLDKCGICQGDGSSCTHVTGNYRK [ADAMTSL2] | 4.91 ± 0.35 | 4.97 ± 0.33 |  |  |
| TLDLSDLEAEKLVMFQRRYYKPGL [SCD] | 2.54 ± 0.3 | 2.88 ± 0.35 |  |  |
| TLEQILEHLDNLRLNLTNTKQNFF [INTS3] | 2.23 ± 0.54 | 2.31 ± 0.11 |  |  |
| TLHGNVCSFCKRAFPSGHLLDAHI [ZNF511] | 2.81 ± 0.27 | 2.95 ± 0.46 |  |  |
| TLIPTCKFYTWLWGVFYYFVSALG [SCD] | 2 ± 0.52 | 2.13 ± 0.15 |  |  |
| TLLHFSAARGKERCVRVFLEHGAD [ASB7] | 2 ± 0.2 | 2.21 ± 0.3 |  |  |
| TLPLTLIVILENIAVAWIYGTKKF [SLC6A17] | 3.03 ± 0.34 | 3.35 ± 0.43 |  |  |
| TLVEAIKEQDGREVDWEYFYGLLF [DFFB] | 2.46 ± 0.28 | 2.69 ± 0.63 |  |  |
| TNLTVTMDQLQGLGSDYEQPLEVK [CDC25A] | 4.61 ± 0.16 | 4.69 ± 0.24 |  |  |
| TNSTPLRAACFDGHLEIVKYLVEH [FEM1C] | 2.28 ± 0.49 | 2.39 ± 0.55 |  |  |
| TPEEVIWEALNMMGLYDGMEHLIY [MAGEA10] | 2.49 ± 0.37 | 2.03 ± 0.055 |  |  |
| TPEVAAAPKPDAAPSIDLFSTDAF [SNAP91] | 4.75 ± 0.23 | 4.75 ± 0.12 |  |  |
| TPPETKPDPPVNFLRQKVLSLPLP [PCMTD2] | 3.74 ± 0.24 | 3.85 ± 0.22 |  |  |
| TPRSPEGTTEAATQDGKEQPELPC [PXN] | 5.38 ± 0.22 | 5.36 ± 0.23 |  |  |
| TQQTGTVRFDGYVIDGATALWCAA [FEM1B] | 2.3 ± 0.11 | 2.22 ± 0.34 |  |  |
| TRGIAKIISAHIHPVCSLCWSRDG [RBBP5] | 2.45 ± 0.44 | 2.04 ± 0.19 |  |  |
| TRIFTEDRFAQDSEMKKCSDYESI [PPEF2] | 4.42 ± 0.098 | 4.25 ± 0.18 |  |  |

| Sequence | protein stability index [1] | protein stability index [2] | protein stability index [3] | protein stability index [4] |
| --- | --- | --- | --- | --- |
| TRQKKNLPDSPLRFDGLPAVLGFP [TRIM15] | 2.85 ± 0.3 | 2.92 ± 0.3 |  |  |
| TSGGLLSEAPNEKLFFVDTGSKEK [NOP53] | 4.92 ± 0.25 | 4.84 ± 0.68 |  |  |
| TSIQWKNHDQNNHNTDRSSHKDSM [EDNRA] | 5.05 ± 0.12 | 5.14 ± 0.2 |  |  |
| TSVFQKKLCTAHMCSTLEHNCAHF [MATN2] | 2.47 ± 0.22 | 2.8 ± 0.34 |  |  |
| TTLEIHNTEERQKRQVTHFQFLSW [PTPN9] | 2.28 ± 0.41 | 2.78 ± 0.59 |  |  |
| TVAGIVGSSYGILQLFSSTLVGCW [MFSD9] | 2.96 ± 0.83 | 2.89 ± 0.32 |  |  |
| TVPADGYILELDDGNGGQFREVYV [TRIM9] | 2.15 ± 0.24 | 2.2 ± 0.6 |  |  |
| TVQDYQDLIDRGWRRSGKYVYKPV [ATE1] | 2.89 ± 0.21 | 3.03 ± 0.51 |  |  |
| TVRGLHCMCTVGERLYVIGGNHFR [KLHL13] | 2.12 ± 0.26 | 2.18 ± 0.2 |  |  |
| VAETECRYALQLQQIQGLISSIEA [KRT13] | 2.72 ± 0.15 | 2.63 ± 0.2 |  |  |
| VARTHLTEDTPKVNADIEKVNQNQ [NSDHL] | 5.08 ± 0.22 | 5.06 ± 0.11 |  |  |
| VDFNTLKSIGSEPHEDHVFLVANF [MATN2] | 2.06 ± 0.3 | 2.18 ± 0.18 |  |  |
| VEKIRKLPNTLLRKDKDVARLQDF [ANKRD40] | 2.93 ± 0.22 | 3.02 ± 0.28 |  |  |
| VEPGTPPLDILAQPLEASNPALEG [DNAAF3] | 5.35 ± 0.14 | 5.36 ± 0.21 |  |  |
| VFIFYYVVEEILELHIHRLRYLSS [PKD2L1] | 2.8 ± 0.091 | 3.07 ± 0.51 |  |  |
| VFLGNKRSLSERTVDKCFGRKKYD [SPATS1] | 2.82 ± 0.24 | 3.21 ± 0.16 |  |  |
| VGVRMRDVKCYQGTDIVRGCDPLV [ADAMTSL2] | 3.01 ± 0.29 | 3.09 ± 0.45 |  |  |
| VHLLLKKVLFALCALNALTTTVCL [FAM189A2] | 3.48 ± 0.24 | 3.02 ± 0.36 |  |  |
| VIDDAKQYVYIAVMDYLPISSTST [PLD5] | 2.54 ± 0.95 | 2.76 ± 0.73 |  |  |
| VIKENDPSGFLQISDALIRRVHLT [TRIM9] | 2.07 ± 0.26 | 2.39 ± 0.34 |  |  |
| VIRRLDETVVNRIAAGEVIQRPAN [MLH1] |  | 3.92 ± 0.28 |  |  |
| VKAATTEPTEVEEVVPALEPTETL [BCL2L13] | 5.65 ± 0.16 | 5.67 ± 0.14 |  |  |
| VKELRPQLMTSQFISVFSNLLESK [ZER1] | 2.38 ± 0.24 | 2.61 ± 0.44 |  |  |

| Sequence | protein stability index [1] | protein stability index [2] | protein stability index [3] | protein stability index [4] |
| --- | --- | --- | --- | --- |
| VKETGYFFIYGQVLYTDKTYAMGH [TNFSF13B] | 2.86 ± 1.5 | 2.41 ± 0.86 |  |  |
| VKVIMDALDERAKVLHEDKQTREQ [TRIM29] | 3.84 ± 0.098 | 3.84 ± 0.39 |  |  |
| VLKDELQLYGDAPGEVVPSGESGL [TMEM40] | 5.14 ± 0.24 | 5.26 ± 0.23 |  |  |
| VLQERVRIFAHKIYLSTSSSKFYD [RHOBTB2] | 2.6 ± 0.54 | 2.33 ± 0.46 |  |  |
| VLQMWHIVDKCTELLREGRASATT [ZBTB22] | 2.19 ± 0.29 | 2.25 ± 0.41 |  |  |
| VNHRIYYKGHIPEKLETFVSLHR [FEM1C] |  |  | 2.24 ± 0.17 | 2.305 ± 0.015 |
| VNPFQLQQFRADPSTASLLLCPGG [TIAF1] | 2.93 ± 0.11 | 2.78 ± 0.14 |  |  |
| VNSNKVVMSGVKCSGTELSLAHCR [LOXL2] | 3.38 ± 1 | 2.95 ± 0.43 |  |  |
| VPRPGIPPMTQAQAVSAPGILNRP [ZNF207] | 4.55 ± 0.063 | 4.45 ± 0.086 |  |  |
| VPWSQCLQNFLLHGTKNVTNSSSL [WSB1] | 2.19 ± 0.21 | 2.19 ± 0.24 |  |  |
| VRKKRFRKTQKKVPDVKEMEKSSF [TAF7L] | 4.1 ± 0.11 | 4.37 ± 0.19 |  |  |
| VSCLGLGTWVTFGGQITDEMAEQL [KCNAB2] | 2.32 ± 0.27 | 2.51 ± 0.3 |  |  |
| VSGGSAGGYGGGVSCGFGGGAGSG [KRT13] | 3.47 ± 0.38 | 3.55 ± 0.19 |  |  |
| VSHPIIYRGAVYADNMEFEQCIKL [FEM1B] | 2.5 ± 0.48 | 2.5 ± 0.25 |  |  |
| VSQHWATWALYNLVSVYPDKYCPL [ZER1] | 3.07 ± 0.34 | 2.74 ± 0.41 |  |  |
| VTAKTAPDVLRTKPAFIGKTNLDG [PTPRD] | 3.73 ± 0.4 | 4.06 ± 0.35 |  |  |
| VTGEKEEPSRSASEADSEAGELRK [PPEF2] | 5.35 ± 0.61 | 5.5 ± 0.29 |  |  |
| VTTEQLGAKMTERGSVARPTQGPE [PXN] | 5.35 ± 0.17 | 5.14 ± 0.38 |  |  |
| VVIDKHPVRFFVHKRPHVDFFLEV [CTDNEP1] | 2.22 ± 1.1 | 3.06 ± 0.87 |  |  |
| VVKRREGPAGHSKGELAPELGEEP [POLD4] | 5.46 ± 0.087 | 5.14 ± 0.36 |  |  |
